No end group written: not given here.
How the values were obtained:
[1] = molecular target: T1, KDD2 (Entamoeba histolytica, UniProt C4M3C2, D242A/K147A); experiment: Microscale Thermophoresis (MST), kinase-dead EhAGCK2 (KDD2); format: binding; conditions: KDD2 (K147A and D242A), Tris-Cl pH 8, 25°C, peptide 500 μM to 153 nM, n = 6
T1 sequence (C4M3C2 1-434 K147A/D242A): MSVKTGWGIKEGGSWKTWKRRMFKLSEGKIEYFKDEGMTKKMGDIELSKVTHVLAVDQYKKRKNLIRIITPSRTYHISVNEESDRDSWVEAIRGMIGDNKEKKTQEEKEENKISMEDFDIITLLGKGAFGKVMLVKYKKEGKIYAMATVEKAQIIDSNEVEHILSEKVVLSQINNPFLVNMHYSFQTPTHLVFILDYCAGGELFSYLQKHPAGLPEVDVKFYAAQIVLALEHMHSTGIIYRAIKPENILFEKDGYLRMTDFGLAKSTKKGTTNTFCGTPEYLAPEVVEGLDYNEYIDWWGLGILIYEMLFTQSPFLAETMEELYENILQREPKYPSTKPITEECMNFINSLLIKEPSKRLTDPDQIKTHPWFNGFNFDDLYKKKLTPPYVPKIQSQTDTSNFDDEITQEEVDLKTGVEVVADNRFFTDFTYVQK
Description: (§1) Microscale Thermophoresis (MST) was performed in the presence of full-length and kinase-dead EhAGCK1 and EhAGCK2 proteins, along with HsGSK3, EhRhoGEF, and EhCoactosin peptide substrates. Proteins were labelled using a His-tag labelling kit, RED-tris-NTA 2nd Generation (Nano Temper Technologies, San Francisco, CA, USA). A brief labelling reaction was performed in a buffer containing (50 mM Tris-Cl pH 8, 150 mM NaCl, 1 mM β-ME and 5% glycerol) with a protein concentration of 20 nM and a molar dye: protein ratio of approximately 3:1. The mixture was kept at room temperature for 30 min, followed by centrifugation at 15000 g for 10 min at 4°C. A series of 16 1:1 dilutions were prepared using the same buffer, resulting in peptide concentrations ranging from 500 μM to […]. Following a 10 min incubation, the samples were loaded into standard monolith NT.115 capillaries from Nano Temper Technologies. […] Data from three independently pipetted measurements were analysed using MO. […]
(§2) The kinase assay data presented here are the mean ± standard error (SE) of n≥3 of three independent experiments. The Km and Vmax were determined from a direct, nonlinear fit of [V] versus [S] plots using the Michaelis-Menten equation: V=Vmax[S]/Km+[S] using the GraphPad Prism 9.0 software package (GraphPad Software Inc., CA, USA). […]

[2] = molecular target: T2, KDD1 (Entamoeba histolytica, UniProt C4M2W0, D241A/K147A); experiment: Microscale Thermophoresis (MST), kinase-dead EhAGCK1 (KDD1); format: binding; conditions: KDD1 (K147A and D241A), Tris-Cl pH 8, 25°C, peptide 500 μM to 153 nM, n = 6
T2 sequence (C4M2W0 1-433 K147A/D241A): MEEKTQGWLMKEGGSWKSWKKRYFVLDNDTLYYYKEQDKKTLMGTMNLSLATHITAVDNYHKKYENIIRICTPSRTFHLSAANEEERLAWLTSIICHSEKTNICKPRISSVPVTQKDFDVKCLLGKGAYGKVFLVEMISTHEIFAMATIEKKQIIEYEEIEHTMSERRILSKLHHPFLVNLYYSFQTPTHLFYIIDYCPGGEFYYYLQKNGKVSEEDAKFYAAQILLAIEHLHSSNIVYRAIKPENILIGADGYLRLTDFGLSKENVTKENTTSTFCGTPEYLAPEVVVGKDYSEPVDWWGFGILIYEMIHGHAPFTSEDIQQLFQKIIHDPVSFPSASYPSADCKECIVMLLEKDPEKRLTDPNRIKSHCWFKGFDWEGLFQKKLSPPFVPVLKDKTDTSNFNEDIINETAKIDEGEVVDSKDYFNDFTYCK
Description: as §1, §2

[3] = molecular target: EhAGCK1 WT (Entamoeba histolytica, UniProt C4M2W0); experiment: Microscale Thermophoresis (MST), EhAGCK1 WT; format: binding; conditions: MST, EhAGCK1
Description: as §1, §2

[4] = molecular target: T3, EhAGCK1 WT (Entamoeba histolytica AGC family kinase 1, EHI_188930), full-length recombinant His-tagged protein (Entamoeba histolytica, UniProt C4M2W0 1-433); experiment: MST; His-tagged kinase labelled with RED-tris-NTA 2nd Generation dye, kept constant (50 nM by the legend); unlabelled peptide in 16 1:1 dilutions, 500 uM to 153 nM as printed; 50 mM Tris-Cl pH 8, 150 mM NaCl, 1 mM beta-ME, 5% glycerol; 25 C; Monolith NT.115, 50% LED, medium MST power; conditions: both partners purified
T3 construct: also called His-EhAGCK1; source: E. coli C41(DE3), purified (Ni2+-NTA)
T3 sequence: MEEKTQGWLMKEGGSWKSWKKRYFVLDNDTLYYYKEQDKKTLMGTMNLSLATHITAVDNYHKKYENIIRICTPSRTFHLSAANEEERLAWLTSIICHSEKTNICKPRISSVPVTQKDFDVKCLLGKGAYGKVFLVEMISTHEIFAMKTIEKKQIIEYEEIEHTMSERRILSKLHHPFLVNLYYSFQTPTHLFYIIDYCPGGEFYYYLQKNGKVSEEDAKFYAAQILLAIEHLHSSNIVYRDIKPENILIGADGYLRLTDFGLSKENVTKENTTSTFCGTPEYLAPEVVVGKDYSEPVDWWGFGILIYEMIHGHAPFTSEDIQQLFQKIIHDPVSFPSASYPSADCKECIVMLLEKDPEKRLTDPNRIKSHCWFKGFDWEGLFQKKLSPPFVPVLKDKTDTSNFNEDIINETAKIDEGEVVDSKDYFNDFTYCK

[5] = molecular target: T4, EhAGCK2 WT (Entamoeba histolytica AGC family kinase 2, EHI_053040), full-length recombinant His-tagged protein (Entamoeba histolytica, UniProt C4M3C2 1-434); experiment: as above; conditions: both partners purified
T4 construct: source: E. coli C41(DE3), purified (Ni2+-NTA)
T4 sequence: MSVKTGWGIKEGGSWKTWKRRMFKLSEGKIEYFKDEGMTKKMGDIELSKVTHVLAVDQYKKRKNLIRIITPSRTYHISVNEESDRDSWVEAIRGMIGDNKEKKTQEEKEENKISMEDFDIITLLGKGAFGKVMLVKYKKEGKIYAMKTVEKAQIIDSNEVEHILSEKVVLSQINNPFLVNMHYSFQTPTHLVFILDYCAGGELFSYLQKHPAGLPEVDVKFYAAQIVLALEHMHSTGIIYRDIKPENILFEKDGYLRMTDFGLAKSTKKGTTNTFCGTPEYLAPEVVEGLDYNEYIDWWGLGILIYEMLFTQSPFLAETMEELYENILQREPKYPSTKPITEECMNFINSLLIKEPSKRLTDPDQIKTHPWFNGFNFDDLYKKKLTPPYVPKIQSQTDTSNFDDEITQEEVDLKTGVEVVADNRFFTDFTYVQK

[6] = molecular target: T5, KDD1, kinase-dead EhAGCK1 (K147A and D241A) (Entamoeba histolytica, UniProt C4M2W0 1-433, K147A | D241A); experiment: as above; conditions: both partners purified
T5 construct: source: E. coli C41(DE3), purified (Ni2+-NTA)
T5 sequence: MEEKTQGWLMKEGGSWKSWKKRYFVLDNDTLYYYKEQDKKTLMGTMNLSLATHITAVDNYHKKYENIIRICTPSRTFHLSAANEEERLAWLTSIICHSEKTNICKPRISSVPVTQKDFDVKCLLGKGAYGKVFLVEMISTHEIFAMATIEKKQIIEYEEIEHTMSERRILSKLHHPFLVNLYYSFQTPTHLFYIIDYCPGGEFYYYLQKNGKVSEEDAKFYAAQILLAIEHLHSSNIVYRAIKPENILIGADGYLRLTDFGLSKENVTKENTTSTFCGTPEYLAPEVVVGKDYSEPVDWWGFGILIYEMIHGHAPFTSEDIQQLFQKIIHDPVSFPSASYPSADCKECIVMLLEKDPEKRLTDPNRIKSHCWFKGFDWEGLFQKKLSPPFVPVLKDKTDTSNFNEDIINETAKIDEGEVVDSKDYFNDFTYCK

[7] = molecular target: T6, KDD2, kinase-dead EhAGCK2 (K147A and D242A) (Entamoeba histolytica, UniProt C4M3C2 1-434, K147A | D242A); experiment: as above; conditions: both partners purified
T6 construct: source: E. coli C41(DE3), purified (Ni2+-NTA)
T6 sequence: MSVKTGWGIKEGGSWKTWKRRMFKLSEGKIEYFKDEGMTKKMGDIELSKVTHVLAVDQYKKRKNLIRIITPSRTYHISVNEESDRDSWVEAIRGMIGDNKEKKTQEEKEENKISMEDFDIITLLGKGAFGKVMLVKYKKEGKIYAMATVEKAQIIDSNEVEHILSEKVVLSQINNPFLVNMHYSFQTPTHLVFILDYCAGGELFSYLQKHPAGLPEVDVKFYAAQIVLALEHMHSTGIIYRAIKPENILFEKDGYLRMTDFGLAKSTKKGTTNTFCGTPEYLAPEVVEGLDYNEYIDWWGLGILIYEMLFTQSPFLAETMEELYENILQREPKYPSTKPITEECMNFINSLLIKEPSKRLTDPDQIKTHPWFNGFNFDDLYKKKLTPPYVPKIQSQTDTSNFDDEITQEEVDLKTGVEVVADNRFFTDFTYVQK

## KAGGADYSFNTTSN [Coactosin]
[1]
  Kd: 11.9 µM

## SSPSSVPAAQSTTPVNVPK [RhoGEF]
[2]
  Kd: 11.9 µM
[3]
  KD range in words: within the nanomolar range

B1: human GSK3 (HsGSK3) peptide (peptide)
peptide: GRPRTTSFAESCK
notes: also called human GSK3 peptide substrate; source: synthetic peptide
[4]
  Kd: 2.62 µM
[5]
  Kd: 0.0848 µM
[6]
  Kd: 1080 µM
[7]
  Kd: 2.38 µM
